Measurements from patent US20150203577A1 (Chugai, published 2015).
Numbering of substitutions follows the chain as printed.

T1: mouse FcγRIII (mouse, UniProt P08508 31-215)
T1 construct: Extracellular domain with C-terminal His tag; also called mFcγRIII; mFcgRIII
T1 chain: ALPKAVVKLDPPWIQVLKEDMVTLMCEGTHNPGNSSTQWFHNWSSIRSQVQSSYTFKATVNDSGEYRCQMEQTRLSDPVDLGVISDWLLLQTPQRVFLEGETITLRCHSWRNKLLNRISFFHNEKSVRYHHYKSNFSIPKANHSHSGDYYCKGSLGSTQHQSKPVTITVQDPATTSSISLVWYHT

T2: mouse FcγRII (mouse, UniProt P08101 30-210)
T2 construct: Extracellular domain with C-terminal His tag; also called mFcγRII; mFcgRII
T2 sequence: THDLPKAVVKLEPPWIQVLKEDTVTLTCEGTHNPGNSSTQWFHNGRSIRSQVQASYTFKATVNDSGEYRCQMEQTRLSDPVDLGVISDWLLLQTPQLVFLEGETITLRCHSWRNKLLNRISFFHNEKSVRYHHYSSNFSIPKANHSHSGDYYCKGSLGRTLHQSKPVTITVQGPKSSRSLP

T3: mouse FcγRIII (mouse, UniProt P08508 31-215)
T3 construct: also called mFcγRIII; mFcgRIII
T3 chain: T1 chain

B1: MB750 (antibody, mouse IgG1, kappa)
heavy: QVQLQESGPGLVKPSETLSLTCAVSGHSISHDHAWSWVRQPPGEGLEWIGFISYSGITNYNPSLQGRVTISRDNSKNTLYLQMNSLRAEDTAVYYCARSLARTTAMDYWGEGTLVTVSSAKTTPPSVYPLAPGSAAQTNSMVTLGCLVKGYFPEPVTVTWNSGSLSSGVHTFPAVLQSDLYTLSSSVTVPSSTWPSETVTCNVAHPASSTKVDKKIVPRDCGCKPCICEPNEVELVFIFPPKPKDVLTITLTPKVTCVVVDISKDDPEVQFSWFVDDVEVHTAQTQPREEQFNSTFRSVSELPIMHQDWLNGKEFKCRVNSDAFPAPIEKTISKTKGRPKAPQVYTIPPPKEQMAKDKVSLTCMITDFFPEDITVEWQWNGQPAENYKNTQPIMDTDGSYFVYSKLNVQKSNWEAGNTFTCSVLHEGLHNHHTEKSLSHSPGK
light: not shown
notes: CH name; VH H237 + CH, L chain MRAL-k0; copies: 2 + 2
B2: MB748 (antibody, mouse IgG1, kappa)
heavy: B1 heavy with S263A, D322A
light: not shown
notes: as for B1
B3: MB749 (antibody, mouse IgG1, kappa)
heavy: B1 heavy with Q291L, D322A
light: not shown
notes: as for B1
B4: MB757 (antibody, mouse IgG1, kappa)
heavy: B1 heavy with S294M, N320D, D322A
light: not shown
notes: as for B1
B5: MB758 (antibody, mouse IgG1, kappa)
heavy: B1 heavy with S294M, D322A, K330R
light: not shown
notes: as for B1
B6: MB756 (antibody, mouse IgG1, kappa)
heavy: B1 heavy with S294L, D322A, K330R
light: not shown
notes: as for B1
B7: MB765 (antibody, mouse IgG1, kappa)
heavy: B1 heavy with N320L, D322A
light: not shown
notes: as for B1
B8: MB751 (antibody, mouse IgG1, kappa)
heavy: B1 heavy with D322A, K330R
light: not shown
notes: as for B1
B9: MB752 (antibody, mouse IgG1, kappa)
heavy: B1 heavy with S294L, D322A
light: not shown
notes: as for B1
B10: MB762 (antibody, mouse IgG1, kappa)
heavy: B1 heavy with F292E, D322A
light: not shown
notes: as for B1
B11: MB760 (antibody, mouse IgG1, kappa)
heavy: B1 heavy with S294L, N320D, D322A, K330R
light: not shown
notes: as for B1
B12: MB764 (antibody, mouse IgG1, kappa)
heavy: B1 heavy with F292T, D322A
light: not shown
notes: as for B1
B13: MB753 (antibody, mouse IgG1, kappa)
heavy: B1 heavy with S294M, D322A
light: not shown
notes: as for B1
B14: MB759 (antibody, mouse IgG1, kappa)
heavy: B1 heavy with N320D, D322A, K330R
light: not shown
notes: as for B1
B15: MB761 (antibody, mouse IgG1, kappa)
heavy: B1 heavy with S294M, N320D, D322A, K330R
light: not shown
notes: as for B1
B16: MB754 (antibody, mouse IgG1, kappa)
heavy: B1 heavy with N320D, D322A
light: not shown
notes: as for B1
B17: MB763 (antibody, mouse IgG1, kappa)
heavy: B1 heavy with F292N, D322A
light: not shown
notes: as for B1
B18: MB755 (antibody, mouse IgG1, kappa)
heavy: B1 heavy with S294L, N320D, D322A
light: not shown
notes: as for B1
B19: H237-MB636/MRAL-k0 (antibody, mouse IgG1, kappa)
heavy: B1 heavy with P230V, N231Y, L235N, D322A
light: not shown
notes: mouse IgG1 CH variant; copies: 2 + 2
B20: H237-MB642/MRAL-k0 (antibody, mouse IgG1, kappa)
heavy: B1 heavy with P230D, N231Y, L235Y, D322A
light: not shown
notes: as for B19
B21: H237-MB657/MRAL-k0 (antibody, mouse IgG1, kappa)
heavy: B1 heavy with L235F, D322A
light: not shown
notes: as for B19

Target: T1, mouse FcγRIII
Test: SPR (Biacore T200); KD of H237-MB630/MRAL-k0 / KD of variant
Text: (§1) The antibody H chain variable region used was the variable region H237 (SEQ ID NO: 1) of the H chain VH3-IgG1 of the anti-IL-6 receptor antibody Fv4-IgG1 described in WO2009/125825. The antibody L chain commonly used was the L chain MRAL-k0 (SEQ ID NO: 2) of the anti-IL-6 receptor antibody tocilizumab. […] These variants were expressed and purified by the method of Reference Example 1 and evaluated for their binding to mFcγRII and mFcγRIII by the method of Reference Example 2 using Biacore T200.
(§2) Each altered antibody was analyzed for its interaction with each Fcγ receptor prepared above using Biacore T100 (GE Healthcare Japan Corp.), Biacore T200 (GE Healthcare Japan Corp.), Biacore A100, or Biacore 4000. The running buffer used was HBS-EP+ (GE Healthcare Japan Corp.). The assay temperature was set to 25° C. The sensor chips used were chips prepared by immobilizing Protein L (ACTIGEN or BioVision) onto Series S Sensor Chip CM5 (GE Healthcare Japan Corp.) or Series S Sensor Chip CM4 (GE Healthcare Japan Corp.) by the amine coupling method.
(§3) In order to calculate the KD value of each altered antibody for FcγR, kinetic analysis was conducted according to the following method: first, the antibody of interest was captured onto any of these chips and allowed to interact with mFcγR diluted with a running buffer. For the obtained sensorgram, the assay results were globally fit into the 1:1 Langmuir binding model using Biacore Evaluation Software to calculate an association rate constant ka (L/mol/s) and a dissociation rate constant kd (1/s). From these values, the dissociation constant KD (mol/L) was calculated.

First: B1
Second: B2
The “Relative mFcγRIII-binding activity (MB630 = 1)” value of the first is higher: 2.06 fold for the first, 0.7 fold for the second.

Compared with B3, B4 is lower in “Relative mFcγRIII-binding activity (MB630 = 1)” value: 1.96 fold for the first, 0.45 fold for the second.

Going from B5 to B6, the “Relative mFcγRIII-binding activity (MB630 = 1)” value rises from 0.69 fold to 1.09 fold.

First: B7
Second: B8
The “Relative mFcγRIII-binding activity (MB630 = 1)” value of the first is lower: 0.64 fold for the first, 1.63 fold for the second.

Going from B9 to B10, the “Relative mFcγRIII-binding activity (MB630 = 1)” value rises from 0.44 fold to 0.51 fold.

Compared with B11, B12 is lower in “Relative mFcγRIII-binding activity (MB630 = 1)” value: 1.42 fold for the first, 0.32 fold for the second.

Compared with B13, B14 is higher in “Relative mFcγRIII-binding activity (MB630 = 1)” value: 0.34 fold for the first, 2.25 fold for the second.

First: B15
Second: B16
The “Relative mFcγRIII-binding activity (MB630 = 1)” value of the first is lower: 0.92 fold for the first, 1.28 fold for the second.

First: B17
Second: B18
The “Relative mFcγRIII-binding activity (MB630 = 1)” value of the first is lower: 0.41 fold for the first, 0.58 fold for the second.

Target: T2, mouse FcγRII
Test: as above
Text: as §1, §2, §3

First: B1
Second: B2
The “Relative mFcγRII-binding activity (MB630 = 1)” value of the first is higher: 1.77 fold for the first, 0.7 fold for the second.

Going from B3 to B4, the “Relative mFcγRII-binding activity (MB630 = 1)” value falls from 1.52 fold to 0.46 fold.

First: B5
Second: B6
The “Relative mFcγRII-binding activity (MB630 = 1)” value of the first is lower: 0.59 fold for the first, 0.64 fold for the second.

Compared with B7, B8 is higher in “Relative mFcγRII-binding activity (MB630 = 1)” value: 0.49 fold for the first, 1.53 fold for the second.

Compared with B9, B10 is higher in “Relative mFcγRII-binding activity (MB630 = 1)” value: 0.36 fold for the first, 0.4 fold for the second.

Going from B11 to B12, the “Relative mFcγRII-binding activity (MB630 = 1)” value falls from 0.85 fold to 0.23 fold.

First: B13
Second: B14
The “Relative mFcγRII-binding activity (MB630 = 1)” value of the first is lower: 0.34 fold for the first, 2.03 fold for the second.

First: B15
Second: B16
The “Relative mFcγRII-binding activity (MB630 = 1)” value of the first is lower: 0.81 fold for the first, 1.26 fold for the second.

Compared with B17, B18 is higher in “Relative mFcγRII-binding activity (MB630 = 1)” value: 0.31 fold for the first, 0.45 fold for the second.

Target: T1, mouse FcγRIII
Test: SPR (Biacore T200); KD of H237-mIgG1/MRAL-k0 / KD of variant
Text: as §1, §2

Going from B1 to B2, the “relative mFcγRIII-binding activity (mIgG1 = 1)” value falls from 0.4 fold to 0.14 fold.

Going from B3 to B4, the “relative mFcγRIII-binding activity (mIgG1 = 1)” value falls from 0.38 fold to 0.09 fold.

Going from B5 to B6, the “relative mFcγRIII-binding activity (mIgG1 = 1)” value rises from 0.13 fold to 0.21 fold.

Going from B7 to B8, the “relative mFcγRIII-binding activity (mIgG1 = 1)” value rises from 0.11 fold to 0.32 fold.

B9 and B10 are the same in “relative mFcγRIII-binding activity (mIgG1 = 1)” value: 0.09 fold for the first, 0.09 fold for the second.

Compared with B11, B12 is lower in “relative mFcγRIII-binding activity (mIgG1 = 1)” value: 0.28 fold for the first, 0.05 fold for the second.

Going from B13 to B14, the “relative mFcγRIII-binding activity (mIgG1 = 1)” value rises from 0.07 fold to 0.44 fold.

Compared with B15, B16 is higher in “relative mFcγRIII-binding activity (mIgG1 = 1)” value: 0.18 fold for the first, 0.25 fold for the second.

Compared with B17, B18 is higher in “relative mFcγRIII-binding activity (mIgG1 = 1)” value: 0.07 fold for the first, 0.11 fold for the second.

Target: T2, mouse FcγRII
Test: as above
Text: as §1, §2

First: B1
Second: B2
The “relative mFcγRII-binding activity (mIgG1 = 1)” value of the first is higher: 29.4 fold for the first, 11.7 fold for the second.

Compared with B3, B4 is lower in “relative mFcγRII-binding activity (mIgG1 = 1)” value: 25.3 fold for the first, 7.6 fold for the second.

Going from B5 to B6, the “relative mFcγRII-binding activity (mIgG1 = 1)” value rises from 9.8 fold to 10.6 fold.

Compared with B7, B8 is higher in “relative mFcγRII-binding activity (mIgG1 = 1)” value: 5.3 fold for the first, 25.4 fold for the second.

Compared with B9, B10 is lower in “relative mFcγRII-binding activity (mIgG1 = 1)” value: 6 fold for the first, 4.4 fold for the second.

Compared with B11, B12 is lower in “relative mFcγRII-binding activity (mIgG1 = 1)” value: 14.1 fold for the first, 2.5 fold for the second.

Going from B13 to B14, the “relative mFcγRII-binding activity (mIgG1 = 1)” value rises from 5.7 fold to 33.8 fold.

Going from B15 to B16, the “relative mFcγRII-binding activity (mIgG1 = 1)” value rises from 13.4 fold to 21 fold.

Going from B17 to B18, the “relative mFcγRII-binding activity (mIgG1 = 1)” value rises from 3.4 fold to 7.6 fold.

Target: T3, mouse FcγRIII
Test: SPR (Biacore), antibody captured on Protein L, mFcγR as analyte
Experimental: as §2, §3

Going from B19 to B20, the “relative mFcγRIII-binding activity (mIgG1 = 1)” value falls from 0.17 fold to 0.1 fold.

For B21, the “relative mFcγRIII-binding activity (mIgG1 = 1)” value was 0.09 fold.
